Assays:
[1] = tested on: T1, LxVPc1 peptide (synthetic peptide with the LxVP sequence of NFATc1)
T1 sequence: DQYLAVPQHPYQWAK

[2] = tested on: mutLxVPc1 peptide (LxVP motif from NFATc1 with the Leucine, Valine and Proline residues replaced by Alanine)

Substance: Calcineurin of the Biomol Green Calcineurin assay kit
- phosphatase activity of CN on the RII phosphopeptide substrate [1]: severely blocked in vitro the phosphatase activity of CN on its physiological substrate
- phosphatase activity of CN on the RII phosphopeptide substrate [2]: (but not its mutant version)
